# Source: paper PMC3025356, “Mechanism of the Ca^2+-Dependent Interaction between S100A4 and Tail Fragments of Nonmuscle Myosin Heavy Chain IIA” (Journal of Molecular Biology, 2011)
# B1: M200: His-tagged human NM-MHC IIA residues Q1761-E1960, V1913I substitution (protein, UniProt P35579 1761-1960, looked up, variant V1913I)
# chain: QINTDLNLERSHAQKNENARQQLERQNKELKVKLQEMEGTVKSKYKASITALEAKIAQLEEQLDNETKERQAACKQVRRTEKKLKDVLLQVDDERRNAEQYKDQADKASTRLKQLKRQLEEAEEEAQRANASRRKLQRELEDATETADAMNREISSLKNKLRRGDLPFVVPRRMARKGAGDGSDEEVDGKADGAEAKPAE
# modifications: His tag
# notes: His-tagged human NM-MHC IIA residues Q1761-E1960, V1913I substitution
# Biological target: T1, S100A4 (Homo sapiens, UniProt P26447)
# T1 construct: We used full-length S100A4 for this analysis; made in house; host or cells: Escherichia coli BL21(DE3)
# T1 sequence (P26447 whole entry): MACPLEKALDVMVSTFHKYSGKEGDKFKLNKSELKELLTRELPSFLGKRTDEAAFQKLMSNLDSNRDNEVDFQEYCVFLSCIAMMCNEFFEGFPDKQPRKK
# Assay: Competition of M32/M16^N with M200 for S100A4 (turbidity)
# Format: biochemical
# Settings: turbidity competition
# Protocol: Fig. 9 Dissociation of M200 filaments by S100A4. (a) Initially, M200 was added (i) from a concentrated stock in 0.5 M NaCl to give a final concentration of 5 μM M200 (with respect to the polypeptide chain) in 100 mM NaCl, 10 mM Hepes, and 0.1 mM Ca^2+ at pH 7.5 and 20 °C. A biphasic rise in turbidity was recorded for 200 s (continuous line). Then 10 μM S100A4 (with respect to monomer concentration) was added (ii), followed by 0.2 mM EGTA (iii) and 1 mM Ca^2+ (iv). […] (b) M200 was diluted (i) into 100 mM NaCl to form filaments as in (a), then 5 μM S100A4 was added (ii), causing a 54% drop in turbidity. A further 5 μM S100A4 (iii) caused turbidity to fall to almost zero. (c) Stopped-flow records monitoring the dissociation of 5 μM M200 filaments on jumping [NaCl] from 100 mM to 120 mM NaCl. Other components of the buffer were 20 mM Hepes, 1 mM Mg^2+, and 100 μM Ca^2+ at pH 7.5 and 20 °C. […] In the presence of 20 μM S100A4 (lower trace), the turbidity decreased by 87% with a rate constant of 0.2 s^− 1.
# Further information on Scheme 2 was obtained from competition assays. […] An independent estimate of K5 based on the Ca^2+ dependence of the turbidity assay yielded a value of 0.003 μM (see Supplementary Data).
# The decrease in fluorescence, […]
# that F-M16N binding was slightly faster. […]
# A second estimate was calculated from the apparent Ca2+ binding constant observed in the turbidity assay […]
molecule,measurement,value
B1,binding relative to M32,3 orders of magnitude tighter than M32
